Experimental data taken from doi:10.64898/2025.12.03.692196.
Values belong to the substance of their own block, whether it stands above or below them.

Key:
[1] = target: YRDC_(A41V), GAMOS-associated variant of the ΔN43 construct (human); assay: native gel or EMSA
[2] = target: YRDC_(A41V), GAMOS-associated variant of the ΔN43 construct (human); assay: mass photometry
[3] = target: YRDC_(I178T), GAMOS-associated variant of the ΔN43 construct (human); assay: mass photometry
[4] = target: YRDC_(ΔL222), GAMOS-associated variant of the ΔN43 construct (human); assay: native gel or EMSA
[5] = target: YRDC_(ΔL222), GAMOS-associated variant of the ΔN43 construct (human); assay: mass photometry
[6] = target: human YRDC lacking the N-terminal 43 residues (ΔN43 construct) (human); assay: native gel or EMSA
[7] = target: human YRDC lacking the N-terminal 43 residues (ΔN43 construct) (human); assay: mass photometry
[8] = target: human YRDC lacking the N-terminal 43 residues (ΔN43 construct) (human); assay: native MS

- stoichiometry N [1]: 2
- tetramer fraction [2]: 24%
- trimer fraction [2]: 28%
Substance: YRDC_(A41V), GAMOS-associated variant of the ΔN43 construct (enzyme)

- dimer fraction [3]: 19%
Substance: YRDC_(I178T), GAMOS-associated variant of the ΔN43 construct (enzyme)

- stoichiometry N [4]: 2
- tetramer fraction [5]: 27%
- trimer fraction [5]: 44%
Substance: YRDC_(ΔL222), GAMOS-associated variant of the ΔN43 construct (enzyme)

- stoichiometry N [6]: 2
- stoichiometry N [7]: 2
- stoichiometry N [8]: 2
Substance: human YRDC lacking the N-terminal 43 residues (ΔN43 construct) (enzyme)
